Test results reported in US20220127354A1 (Amgen, published 2022).

T1: muCDH19(44-139)::huCDH19(142-249)::muCDH19(248-770) with Flag tag (construct D, Hu EC2) (human/mouse chimera)
T1 construct: leader left out; the entry starts at residue 44; also called C137913
T1 chain: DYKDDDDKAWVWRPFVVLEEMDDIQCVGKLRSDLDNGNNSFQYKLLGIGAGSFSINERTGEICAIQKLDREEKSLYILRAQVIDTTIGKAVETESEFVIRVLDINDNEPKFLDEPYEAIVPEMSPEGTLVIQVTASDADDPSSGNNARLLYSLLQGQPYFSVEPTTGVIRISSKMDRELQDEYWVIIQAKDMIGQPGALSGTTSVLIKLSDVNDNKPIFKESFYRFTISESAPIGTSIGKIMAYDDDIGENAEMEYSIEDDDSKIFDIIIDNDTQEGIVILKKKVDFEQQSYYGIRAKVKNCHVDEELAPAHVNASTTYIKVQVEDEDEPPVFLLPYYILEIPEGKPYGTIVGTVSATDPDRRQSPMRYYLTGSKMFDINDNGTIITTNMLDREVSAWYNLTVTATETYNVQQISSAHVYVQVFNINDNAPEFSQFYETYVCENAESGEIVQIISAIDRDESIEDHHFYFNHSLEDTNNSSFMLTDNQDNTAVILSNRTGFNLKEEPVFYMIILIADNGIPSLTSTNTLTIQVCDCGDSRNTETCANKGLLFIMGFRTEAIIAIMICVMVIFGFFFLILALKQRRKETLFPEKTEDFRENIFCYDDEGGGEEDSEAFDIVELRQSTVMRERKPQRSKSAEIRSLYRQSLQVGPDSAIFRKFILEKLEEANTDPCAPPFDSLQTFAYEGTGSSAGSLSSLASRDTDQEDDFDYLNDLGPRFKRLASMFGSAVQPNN

T2: muCDH19(44-461)::huCDH19(464-772) with Flag tag (construct H, Hu EC5) (human/mouse chimera)
T2 construct: leader left out; the entry starts at residue 44; also called C137915
T2 chain: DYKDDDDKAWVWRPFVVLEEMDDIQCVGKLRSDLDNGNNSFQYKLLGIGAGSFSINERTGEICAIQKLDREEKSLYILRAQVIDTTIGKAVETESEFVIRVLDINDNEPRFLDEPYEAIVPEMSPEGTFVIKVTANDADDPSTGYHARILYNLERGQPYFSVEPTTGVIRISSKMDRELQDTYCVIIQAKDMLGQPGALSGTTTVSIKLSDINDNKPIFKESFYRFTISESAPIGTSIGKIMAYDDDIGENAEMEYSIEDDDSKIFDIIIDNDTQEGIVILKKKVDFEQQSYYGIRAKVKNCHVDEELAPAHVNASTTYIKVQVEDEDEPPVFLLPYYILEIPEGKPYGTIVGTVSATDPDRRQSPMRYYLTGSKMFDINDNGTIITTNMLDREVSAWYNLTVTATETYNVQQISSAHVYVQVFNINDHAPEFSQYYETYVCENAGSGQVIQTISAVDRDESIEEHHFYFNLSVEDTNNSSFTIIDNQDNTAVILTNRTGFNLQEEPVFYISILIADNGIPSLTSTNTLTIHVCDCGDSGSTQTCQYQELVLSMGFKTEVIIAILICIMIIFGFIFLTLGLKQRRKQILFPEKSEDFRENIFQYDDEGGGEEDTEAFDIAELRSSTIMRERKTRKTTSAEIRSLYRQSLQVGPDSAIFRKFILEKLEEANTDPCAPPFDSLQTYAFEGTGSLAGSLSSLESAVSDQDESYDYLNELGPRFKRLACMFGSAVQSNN

T3: muCDH19(44-323)::raCDH19(324-327)::muCDH19(328-770) with leader and FLAG (construct X) (rat/mouse chimera)
T3 construct: leader (1-43 of the entry) left out
T3 chain: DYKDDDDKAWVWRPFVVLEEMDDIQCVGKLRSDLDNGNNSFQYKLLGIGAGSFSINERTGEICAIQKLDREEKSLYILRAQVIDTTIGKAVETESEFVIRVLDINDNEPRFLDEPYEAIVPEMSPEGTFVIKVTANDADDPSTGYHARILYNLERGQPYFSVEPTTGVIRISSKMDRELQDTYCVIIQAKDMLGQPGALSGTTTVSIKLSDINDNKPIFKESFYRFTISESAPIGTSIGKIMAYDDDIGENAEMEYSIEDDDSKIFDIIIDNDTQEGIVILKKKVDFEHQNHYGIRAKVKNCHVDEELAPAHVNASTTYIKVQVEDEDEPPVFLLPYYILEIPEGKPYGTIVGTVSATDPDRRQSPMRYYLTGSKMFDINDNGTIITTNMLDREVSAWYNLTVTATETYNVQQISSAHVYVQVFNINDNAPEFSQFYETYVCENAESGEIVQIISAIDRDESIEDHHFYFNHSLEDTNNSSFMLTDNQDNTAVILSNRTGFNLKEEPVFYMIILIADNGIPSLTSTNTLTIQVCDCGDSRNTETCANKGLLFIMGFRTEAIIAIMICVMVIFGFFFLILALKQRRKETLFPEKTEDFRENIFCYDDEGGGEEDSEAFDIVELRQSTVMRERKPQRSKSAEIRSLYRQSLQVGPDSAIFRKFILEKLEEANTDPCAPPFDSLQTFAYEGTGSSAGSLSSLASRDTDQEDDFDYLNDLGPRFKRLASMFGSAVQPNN


Key:
[1] = molecular target: T1, muCDH19(44-139)::huCDH19(142-249)::muCDH …; experiment: flow cytometry, transfected 293T cells
Excerpt: (§1) The experiment included assaying the anti-CDH19 antibodies against mouse Cadherin19 to determine suitability for binning on these human/mouse chimeras.

[2] = molecular target: T2, muCDH19(44-461)::huCDH19(464-772) with …; experiment: flow cytometry, transfected 293T cells
Excerpt: as §1

[3] = molecular target: T3, muCDH19(44-323)::raCDH19(324-327)::muCDH …; experiment: flow cytometry, transfected 293T cells, 2 mM CaCl2
Description: The following binding assay was completed in presence of 2 mM CaCl₂). […] Cells were then washed one time and the amount of cell associated Alexa647-labelled Ab was quantitated by flow cytometry. The experiments included mock transfected controls.

Row | binding result [1] | binding result [2] | binding result [3] | Binder
1 | binds | binds | binds | anti-CDH19 antibody 2G6 (Ab ID 13588) (antibody, human IgG1, lambda, V domains shown, Bin 4) VH: QVQLVESGGGVVQPGRSLRLSCAASGFTFSSYGMHWVRQAPGKGLEWVAFIWYDGSNKYYADSVKDRFTISRDNSKNTLYLQMKSLRAEDTAVYYCARRAGIIGTIGYYYGMDVWGQGTTVTVSS VL: SYELTQPPSVSVSPGQTASITCSGDRLGEKYTCWYQQRPGQSPLLVIYQDTKRPSGIPERFSGSNSGNTATLTISGTQAMDEADYYCQAWDSSTVVFGGGTKLTVLG
2 |  |  | binds | hu anti-<huCDH19> 4B10 (Ab ID 13590) (antibody, V domains shown, huIgG1z / huKLC; Bin 4) VH: QVQLVESGGGVVQPGRSLRLSCAASGFTFSSYDMHWVRQAPGKGLEWVAVISYDGTNEYYADSVKGRFTISRDTSKNTLYLQMNSLRAEDTAVYYCARERYFDWSFDYWGQGTLVSVSS VL: EIVLTQSPGTLSLSPGERATLSCRASQSVSNTYLAWYHQRPGQAPRLLIYGASSRATGIPDRFSGSGSGTDFALTISSLEPEDFAVYYCQQYSNSWTFGQGTKVEIKR
